In patent US20230227568A1 (Pieris, published 2023):

Assays:
[1] = molecular target: T1, hu4-1BB-Fc (R&D Systems) (human, UniProt Q07011 24-186); assay: SPR, hu4-1BB-Fc captured
T1 construct: Bought; also called human 4-1BB; not shown: human IgG Fc of the bought fusion

[2] = molecular target: T2, human 4-1BB on cells (human, UniProt Q07011 24-255); assay: flow cytometry, Flp-In-CHO::hu4-1BB cells
T2 construct: whole, on cells; Stably transfected CHO cells (flow cytometry) and bought Jurkat reporter cells (bioassay); also called Flp-In-CHO::hu4-1BB; human 4-1BB-expressing CHO cells
Description: 5×10⁴ cells per well were incubated for 1 h in ice-cold PBS containing 5% fetal calf serum (PBS-FCS). A dilution series of the tested multimeric proteins (SEQ ID NOs: 38-44 and 46-55), the 4-1BB-targeting lipocalin mutein as included in the multimeric proteins (SEQ ID NO: 64) or the GPC3-targeting lipocalin SEQ ID NO: 90 were added to the cells and incubated for 1 h on ice. Cells were washed twice with PBS and then incubated with a rabbit anti-NGAL or a goat anti-human IgG labeled with fluorescent dye Alexa 488 for 30 min on ice. Human IgG4 isotype (SEQ ID NOs: 29 and 30) and lipocalin mutein SEQ ID NO: 8 were tested as a negative control. Cells were subsequently washed and analyzed using iQue Flow cytometer (Intellicyte Screener). Mean geometric fluorescent signals were plotted and fitted with Graphpad software using nonlinear regression (shared bottom, four parameters, variable slope).
Target-specific binding of hexavalent trimeric proteins to human 4-1BB-, OX40- or PD-L1-expressing cells was assessed by flow cytometry as described in Example 5, using CHO cells stably transfected with human 4-1BB, human OX40 or human PD-L1 (Flp-In system; Life Technologies).

[3] = molecular target: T3, human PD-L1 on CHO cells (human, UniProt Q9NZQ7 19-290); assay: flow cytometry, Flp-In-CHO::huPD-L1 cells
T3 construct: whole, on cells; Stably transfected CHO cells; also called Flp-In-CHO::huPD-L1; human PD-L1-expressing CHO cells
T3 sequence (Q9NZQ7 19-290): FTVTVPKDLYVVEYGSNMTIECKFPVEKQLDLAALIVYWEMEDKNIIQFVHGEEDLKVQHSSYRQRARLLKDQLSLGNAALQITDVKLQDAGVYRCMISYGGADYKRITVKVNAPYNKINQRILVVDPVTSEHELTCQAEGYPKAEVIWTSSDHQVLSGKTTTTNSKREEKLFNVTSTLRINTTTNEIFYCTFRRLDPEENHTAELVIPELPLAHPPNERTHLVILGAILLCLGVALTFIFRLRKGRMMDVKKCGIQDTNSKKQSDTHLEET

T2 sequence (Q07011 24-255): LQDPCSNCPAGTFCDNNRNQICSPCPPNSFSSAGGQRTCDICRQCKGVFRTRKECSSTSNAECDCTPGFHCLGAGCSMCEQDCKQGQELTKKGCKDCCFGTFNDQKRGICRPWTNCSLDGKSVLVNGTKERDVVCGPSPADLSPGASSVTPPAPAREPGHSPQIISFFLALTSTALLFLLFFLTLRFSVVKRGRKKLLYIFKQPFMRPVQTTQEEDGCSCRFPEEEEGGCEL

B1: multimeric protein SEQ ID NO: 45 (designed binder)
chain: GVRLWATRQAMLGQVHEVPEGWLIFVAEQEELYVRVQNGFRKVQLEARTPLGGGGSGGGGSGGGGSGGGGSGGGGSQDSTSDLIPAPPLSKVPLQQNFQDNQFHGKWYVVGQAGNIRLREDKDPIKMMATIYELKEDKSYDVTMVKFDDKKCMYDIWTFVPGSQPGEFTLGKIKSFPGHTSSLVRVVSTNYNQHAMVFFKFVFQNREEFYITLYGRTKELTSELKENFIRFSKSLGLPENHIVFPVPIDQCIDGGGSGGAPEQKLISEEDLGSHHHHHHHHHH
binding result [1]: binds

B2: bispecific hexavalent trimeric protein SEQ ID NO: 167 (designed binder)
chain: QVQLQESGPGLVKPSETLSITCTVSGFSLSNYDISWIRQPPGKGLEWLGVIWTGGATNYNPALKSRLTISRDNSKNQVSLKMSSVTAADTAVYYCVRDSNYRYDEPFTYWGQGTLVTVSSGGGGSGGGGSGGGGSGGGGSEIVLTQSPDTLSVTPKEKVTLTCRASQSIGTNIHWFQQKPGQSPKLLIKYASESISGVPSRFSGSGSGTDFTLTINSVEAEDAATYYCQQSNSWPYTFGQGTKLEIKGGGGSGGGGSGGGGSGVRLWATRQAMLGQVHEVPEGWLIFVAEQEELYVRVQNGFRKVQLEARTPLGGGGSGGGGSGGGGSQDSTSDLIPAPPLSKVPLQQNFQDNQFHGKWYVVGQAGNIRLREDKDPIKMMATIYELKEDKSYDVTMVKFDDKKCMYDIWTFVPGSQPGEFTLGKIKSFPGHTSSLVRVVSTNYNQHAMVFFKFVFQNREEFYITLYGRTKELTSELKENFIRFSKSLGLPENHIVFPVPIDQCIDGGGSGGAPEQKLISEEDLGSHHHHHHHHHH
EC50 [2]: 4.71 nM
EC50 [3]: 1.23 nM
